Our source for the C4b Screen Ref Fold (fold vs CFI-HSA wild type) and iC3b Screen Ref Fold (fold vs CFI-HSA wild type) values is patent US20230038638A1, “COMPLEMENT FACTOR I-RELATED COMPOSITIONS AND METHODS” (published 2023).

In one assay the target is T1, human C4b (human) (UniProt P0C0L5).
T1 sequence: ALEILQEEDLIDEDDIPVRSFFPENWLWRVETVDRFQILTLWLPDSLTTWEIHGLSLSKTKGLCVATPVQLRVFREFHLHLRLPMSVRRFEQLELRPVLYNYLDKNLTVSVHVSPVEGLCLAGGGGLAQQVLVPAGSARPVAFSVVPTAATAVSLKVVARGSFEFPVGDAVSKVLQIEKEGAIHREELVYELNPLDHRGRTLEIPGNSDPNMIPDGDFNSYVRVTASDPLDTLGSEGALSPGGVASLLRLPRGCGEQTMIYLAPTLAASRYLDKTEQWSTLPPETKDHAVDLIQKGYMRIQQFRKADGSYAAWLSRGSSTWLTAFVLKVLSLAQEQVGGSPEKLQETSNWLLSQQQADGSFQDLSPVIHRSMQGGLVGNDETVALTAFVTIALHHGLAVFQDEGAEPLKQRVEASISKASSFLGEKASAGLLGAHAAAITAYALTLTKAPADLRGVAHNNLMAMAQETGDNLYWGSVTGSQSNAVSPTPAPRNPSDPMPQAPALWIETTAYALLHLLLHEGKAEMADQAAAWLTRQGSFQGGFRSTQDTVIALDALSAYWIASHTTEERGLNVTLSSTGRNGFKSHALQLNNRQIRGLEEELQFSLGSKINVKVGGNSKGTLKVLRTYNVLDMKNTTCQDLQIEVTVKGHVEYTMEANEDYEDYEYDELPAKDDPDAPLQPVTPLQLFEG

Assay [1] has as its target soluble human C3b (human) (UniProt P01024).

On to CFI-HSA R557D (enzyme), for which the C4b Screen Ref Fold (fold vs CFI-HSA wild type) in the assay with human C4b (human) turned out to be 0.5. In assay [1], the iC3b Screen Ref Fold (fold vs CFI-HSA wild type) was -0.01.

CFI-HSA R557E (enzyme): the C4b Screen Ref Fold (fold vs CFI-HSA wild type) with human C4b (human) was found to be 1.15. In addition, the iC3b Screen Ref Fold (fold vs CFI-HSA wild type) in assay [1] was -0.02.

Regarding CFI-HSA R557F (enzyme), the C4b Screen Ref Fold (fold vs CFI-HSA wild type) with human C4b (human) was determined as 2.13. Besides, the iC3b Screen Ref Fold (fold vs CFI-HSA wild type) in assay [1] turned out to be 0.12.

As for CFI-HSA R557G (enzyme), the C4b Screen Ref Fold (fold vs CFI-HSA wild type) with human C4b (human) came out at 1.61. Besides, the iC3b Screen Ref Fold (fold vs CFI-HSA wild type) in assay [1] was found to be 0.04.

CFI-HSA R557H (enzyme): the C4b Screen Ref Fold (fold vs CFI-HSA wild type) with human C4b (human) was 2.44. Moreover, the iC3b Screen Ref Fold (fold vs CFI-HSA wild type) in assay [1] was 0.11.

For CFI-HSA R557I (enzyme), the C4b Screen Ref Fold (fold vs CFI-HSA wild type) with human C4b (human) was 3.27. Moreover, the iC3b Screen Ref Fold (fold vs CFI-HSA wild type) in assay [1] is 0.16.

On to CFI-HSA R557L (enzyme), for which the C4b Screen Ref Fold (fold vs CFI-HSA wild type) with human C4b (human) came to 2.27. For the same substance, in assay [1], the iC3b Screen Ref Fold (fold vs CFI-HSA wild type) was 0.15.

Take CFI-HSA R557M (enzyme): the C4b Screen Ref Fold (fold vs CFI-HSA wild type) with human C4b (human) was determined as 2.48. The iC3b Screen Ref Fold (fold vs CFI-HSA wild type) in assay [1] was 0.16.

Take CFI-HSA R557N (enzyme): the C4b Screen Ref Fold (fold vs CFI-HSA wild type) in the assay with human C4b (human) was 1.87. Further, the iC3b Screen Ref Fold (fold vs CFI-HSA wild type) in assay [1] stood at 0.05.

Consider CFI-HSA R557P (enzyme), for which, in the assay with human C4b (human), the C4b Screen Ref Fold (fold vs CFI-HSA wild type) was found to be 3. Besides, in assay [1], the iC3b Screen Ref Fold (fold vs CFI-HSA wild type) came out at 0.04.

As to CFI-HSA R557Q (enzyme), the C4b Screen Ref Fold (fold vs CFI-HSA wild type) with human C4b (human) stood at 2.12. In addition, the iC3b Screen Ref Fold (fold vs CFI-HSA wild type) in assay [1] was found to be 0.08.

Turning to CFI-HSA R557S (enzyme), the C4b Screen Ref Fold (fold vs CFI-HSA wild type) in the assay with human C4b (human) was determined as 1.11. Besides, in assay [1], the iC3b Screen Ref Fold (fold vs CFI-HSA wild type) turned out to be 0.1.

Regarding CFI-HSA R557T (enzyme), in the assay with human C4b (human), the C4b Screen Ref Fold (fold vs CFI-HSA wild type) came out at 1.63. The iC3b Screen Ref Fold (fold vs CFI-HSA wild type) in assay [1] turned out to be 0.09.

With CFI-HSA R557V (enzyme), in the assay with human C4b (human), the C4b Screen Ref Fold (fold vs CFI-HSA wild type) was determined as 2.23. Further, the iC3b Screen Ref Fold (fold vs CFI-HSA wild type) in assay [1] came to 0.21.

Turning to CFI-HSA R557W (enzyme), the C4b Screen Ref Fold (fold vs CFI-HSA wild type) in the assay with human C4b (human) amounted to 2.36. In addition, the iC3b Screen Ref Fold (fold vs CFI-HSA wild type) in assay [1] came out at 0.12.

In the case of CFI-HSA R557Y (enzyme), the C4b Screen Ref Fold (fold vs CFI-HSA wild type) in the assay with human C4b (human) was 3.23. Further, in assay [1], the iC3b Screen Ref Fold (fold vs CFI-HSA wild type) is 0.21.

Consider CFI-HSA S343G (enzyme), for which the C4b Screen Ref Fold (fold vs CFI-HSA wild type) in the assay with human C4b (human) came out at 0.92. Moreover, in assay [1], the iC3b Screen Ref Fold (fold vs CFI-HSA wild type) is 1.32.

As for CFI-HSA S527G (enzyme), the C4b Screen Ref Fold (fold vs CFI-HSA wild type) in the assay with human C4b (human) was found to be 0.09. Besides, the iC3b Screen Ref Fold (fold vs CFI-HSA wild type) in assay [1] stood at 0.16.

On to CFI-HSA T377G; E457G (enzyme), for which the C4b Screen Ref Fold (fold vs CFI-HSA wild type) in the assay with human C4b (human) is 4.38. Also, the iC3b Screen Ref Fold (fold vs CFI-HSA wild type) in assay [1] was 2.31.

In the case of CFI-HSA T377G; E457G; E461Q (enzyme), the C4b Screen Ref Fold (fold vs CFI-HSA wild type) with human C4b (human) was 3.75. The iC3b Screen Ref Fold (fold vs CFI-HSA wild type) in assay [1] turned out to be 2.27.

“CFI-HSA T377G; E457G; E461Q; N531G (enzyme)”: in the assay with human C4b (human), the C4b Screen Ref Fold (fold vs CFI-HSA wild type) was determined as 4.73. Also, in assay [1], the iC3b Screen Ref Fold (fold vs CFI-HSA wild type) was 1.57.

On to CFI-HSA T377G; E461Q (enzyme), for which, in the assay with human C4b (human), the C4b Screen Ref Fold (fold vs CFI-HSA wild type) was determined as 3.17. Further, the iC3b Screen Ref Fold (fold vs CFI-HSA wild type) in assay [1] worked out at 2.82.

On to CFI-HSA T377G; N531G (enzyme), for which the C4b Screen Ref Fold (fold vs CFI-HSA wild type) with human C4b (human) was found to be 4.53. The iC3b Screen Ref Fold (fold vs CFI-HSA wild type) in assay [1] came to 2.34.

For CFI-HSA V526G (enzyme), the C4b Screen Ref Fold (fold vs CFI-HSA wild type) in the assay with human C4b (human) is 0.03. Besides, in assay [1], the iC3b Screen Ref Fold (fold vs CFI-HSA wild type) was -0.01.

With CFI-HSA V540G (enzyme), the C4b Screen Ref Fold (fold vs CFI-HSA wild type) in the assay with human C4b (human) turned out to be 0.01. Besides, in assay [1], the iC3b Screen Ref Fold (fold vs CFI-HSA wild type) came to 0.03.

On to CFI-HSA W528G (enzyme), for which the C4b Screen Ref Fold (fold vs CFI-HSA wild type) in the assay with human C4b (human) was determined as 0.01. In addition, the iC3b Screen Ref Fold (fold vs CFI-HSA wild type) in assay [1] was -0.05.

Regarding CFI-HSA Y408L; D425R; E530Y (enzyme), the C4b Screen Ref Fold (fold vs CFI-HSA wild type) in the assay with human C4b (human) is 1.05. Besides, the iC3b Screen Ref Fold (fold vs CFI-HSA wild type) in assay [1] worked out at 1.95.
